Consider one molecule from US20220380409A1.

Ends that are not written are not given here. Tz4 = ring closure through triazole, 4-carbon linker to triazole

For the assay, the target named is full-length Akt2 protein (Homo sapiens (Human)) (UniProt P31751). As to the kind of experiment: affinity estimation from immunoassays capturing full-length Akt2 protein (FIG. 6D).

B1: Cy(YYTYT (SEQ ID NO:4)-Tz4) (peptide)
peptide: YYTYT
modifications: triazole (positions not given here) via Tz4; also: ring closed via triazole between non-natural alkyne and azide residues flanking the sequence, variable region only, constant region not given here
For B1, the fold higher affinity than the corresponding linear peptide was 30 fold.
